Laboratory results taken from the nanobody polyreactivity screen of Harvey et al. (2022).

Experiment: yeast display, Sf9 membrane polyspecificity reagent, FACS + sequencing; frameworks hold sequencing errors
How it was run: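 Genes from sorted yeast were amplified by colony PCR, read by MiSeq 2 × 250 sequencing and filtered on CDR length. These cells carried a synthetic nanobody library in Saccharomyces cerevisiae BJ5465 and were sorted by FACS into low and high (top ~1%) gates on anti-HA and streptavidin fluorescence. Polyreactivity is labelled according to the gate of origin.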

Sequence | polyreactivity (PSR sort gate)
QVQLVESGGGLVQAGGSLRLSCAASGSTFYYNAMGWYRQAPGKERELVARISRSGGSTYADSVKGRFTISRDNAKKTVSFQMNSLKPEDTAVYYCNADAYGTQEFTSYAVRYDYWGQGTEVTVSS | low polyreactivity
QVQLVESGGGLVQAGGSLRLSCAASGRTFRYYAMGWYRQAPGKEREFVAAITSRSSRTYYADSVKGRFTISRDTAKNTVYLQMNSLKPEDTAVYYCARGSELGYYAWVYYWGQGTQVTVSS | high polyreactivity
QVQLVESGGGLVQAGGSLRLSCAASGFTLQSNAMGWFRQATGKERELVAAISFRGGSTYYADSVKGRFTISRDNAKNTVYLQMNSLKPEDTAVYYCAADFYFHSAYNYGYWGQGTQVTVSS | low polyreactivity
QVQHVESGGGLVQAGGSLRLSCAASGSIFLLYAMGCYSQAPGKERELVAAISTRDGSTYYADSVKGRFTISRDNAKNTVYLQMNSLKPEDTAVYYCATLYSYNYWGQGTQVTVSS | high polyreactivity
QVQLVESGGGLVQAGGSLRLSCAASGSIFGKYAMGWYRQAPGKERELVAAITWSGGSTRYADSVKGRFTISRDNAKNTVYLQMNSLKPEDTAVYYCAAPSTESKYYYWGQGTQVTVSS | high polyreactivity
QVQLVESGGGLVQAGGSLRLSCAATGINITSNTMGWYRLAPGKEREFVASINWNGSSTYADSVKGRFTISRDNAKNTVYLQMNSLKPEDTAVYYCNADYNRNSVQFSLYDYWGQGTQVTVSS | low polyreactivity
QVQLVESGGGLVQAGGSLRLSCAASGFIFYYNAMGWYRQAPGKERELVAAISTDGGSTYYADSVKGRFTISRDNAKNTVYLQMNSLNPEDTAVYYCAAKRYKRYDYWGQGTQVTVSS | low polyreactivity
QVQLVESGGGLVQAGGSLRLSCAASGRIYKYYAMGWYRQAPGKETELVAAISISGTNTYYADSVKGRFTISRDNAKNTVYLQMNSLKPEDTAVFYCAARQYTRGYEREYWGQGTQVTVSS | high polyreactivity
QVQLVESGGGLVQAGGSLRLSCAASGSIFKEYTMGWYRQAPGKERELVAAITWSDGSTDYADSVKGRFTISRDNAKNTVYLQMNSLKPEDTAVYYCAADYDYPYFWSSGYIDDYWGQGTQVTVSS | low polyreactivity
QVQLVESGGGLVQAGGSLRLSCDASGSIIGFYAMVWYRQAPGKERELVASISSSGDSTYYADSVKGRFTFSRDIAKNTVYLQMNSLIPEDTAVYYCAAVVYDIYGYEFDYWGQGTQLTVSS | low polyreactivity
QVQLVESGVGLVQAGGSLRLSCAASGSTFRRNTMGWYRKAPGKERELVAAINYSGGSTYYADSVKGRFTISRDNAKNTVYLQMNSLKPEDTAVYYCAARYAYDFPYYYWGQGTQVTVSS | high polyreactivity
QVQLVESGGGLVQAGGSLRLSCAAFGPIFQYYAMGSYRQAPGKERELVAAITRSGGSTYYADSVKGRFTISRDNAKNTVYLQMNSLKPEDTAVYYCAAYSRYTVREGYDYWGQGTQVTVSS | high polyreactivity
QVQLVESGGGLVQAAGSLRLSCAASVGTFTPNVMGWSRKAPGKERELVAAIDDSGSRTYYADSVKGRFTISRVNAKNTVYLQMNSLKPEDTAVYYCAVYWYGTFPMYYWGQGTQVTVSS | low polyreactivity
QVQLVESGGGLVQAGGSLRLICAASGFIFDWNTMGWYRQAPGKEREMVAAISWSGAGTYYADSVKGRFTISRDNAKNTVYLQMNSLKPEDTAVYYCNAVRANGQASQEGEYWGQGTQVTVSS | high polyreactivity
QVQLGDSGGGLVQAGGSLRLSCAASGRIFYGNAMGWYRQAPWKERELVAAISSGGGSTYYADSVKGRFTISRDNAKNTVYLQMNSLKPEDNAVYYCAADPVPRFPGTGGYWGQGTQVTVSS | low polyreactivity
QVQLVESGGGLLQAGGSLRLSCAASGSLFGGYAMAWYRQAPGKEREFGAAISGRGASTYYADSVKGRFTISRDNAKTTVYLQMNSLKPEDTAVYDCNARADGRIDGHSATYGYWGQGTQVTVSS | high polyreactivity
QVQLVESGGGLVQAGGSLRLSCAASGFIFSRYAMGWYRQAPGKERELVASISWGGGSTSYADSVKGRFTISRDNAKNTVYLQMNSLKPEDTAVYYCNARVRSHRFNYWGQGTQVTVSS | high polyreactivity
QVQLVESGGGLVQAGGSLRLSCAASGRTLAPNAMGWYRQAPGKERELVSTITRGGTTNYADSVKGRFTISRDNAKNTVYLQMNSLKPEDTAVYYCAKAHYLGYYQRYDYWGQGTQVTVSS | low polyreactivity
QVQLVESGGGLVQAGGSLRLSCAASGFTFRYYAMGWYRKAPGKERELVAAITRRGGSKYYADSVKGRFTISRDNAKNTVYLQMNSLKPEDTAVYDCAASLWTTSADYDYWGQGTQVTVSS | high polyreactivity
QVQLVESGGGLVQAGGSLRLSCAASGSTYYNTMGWYRQAPGKEREFVAAITWSTGTTYYADSVKGRFTISRDNAKNTVYLQMNSLKPEDTAVYYCATDDSRDWLNYWGQGTQVTVSS | low polyreactivity
QVQLVESGGGLVQAGGSLRLSCAASGRIFAGYTMGWYRQAPGKERELVAAISGSGGRTYYADSVKGRFTISRDIAKNTVYLQMNSLKPEDTAVYYCAAYRSRTYGYWGQGTQVTVSS | high polyreactivity

Sequence | polyreactivity (PSR sort gate)
QVQLVESGGGLVQAGGSLRLSCAASGFIFVRNTRGWYRQAPGKERELVATITRRGGSTSYADSVKGRFTISRDNAKNTVYLQMNSLKPEDTAVYYCNARSVYGSKQEEYWGQGTQVTVSS | high polyreactivity
QVQLVESGGGLVQAGGSLRLSCAASGFTFGVYALGGYRQAPGKEREFVAAISRSGSSTYYADSVKGRFTISRDNAKNTVYLQMNSLKPEDTAVYYCAKRSGNRYSFDYWGQGTQVTVSS | high polyreactivity
QVQLVESGGGLVQAGGSLRLSCAASGRIFSSYAMGWSRQAPGKERELVAAISSSGGNTYYADSVKGRFTISRDNAKNTVYLQMNSLKPEDTAVYYCNTRWVHRDWYDYWGQGTQVTVSS | high polyreactivity
QVQLVESVGGLVQAGGSLRLSCAASGRTFDGNAMGWYRQAPGKERELVAAIRFNGSTTYYADSVKGRFTISRDNSKNTVYLQMNSLKPEDTAVYYCNKFEGALGGMDYWGQGTQVTVSS | low polyreactivity
QVQLVESGGGLVQAGGSHRLSCAASGSTFYRYAMGWYRQAPGKEREFVAAISTRGGSTHYADSVKGRFTISRDNAKNTVYLQMNSLKPEDTAVYYCNARGYYSVPSNTGIRYYRFDYWGQGTQVTLSS | low polyreactivity
QVQLVESGGGLVQAGGSLRLSCPASGRIFHRNTMGWYRPAPGKERELVAAIRSGSRTYYADSVKGRFTISRDNAKNTVYLQMNSLKPEDKAVYYCATTYGSPRYDYWGQGTQVTVSS | high polyreactivity
QVQLVESGGGLVQAGGSLRLSCAASGRTFGLYAMGWYRQAPGKETELVAAISSSGGSTYYADSVKGRFTISRDNAKNTVYLQMNSLKPEDTAVYYCAKYRRVGYLYDYWGQGTQVTVSS | high polyreactivity
QVQIVESGGGLVQAGGSLRLSCAASGRTLDVYAMGWDRQAPGKERELVARITSGGSTNYADSVKGRFTISRDNAKNTVYLQMNSLKPEDTAVYYCNAVVYPRPYTRPRYRYDYWGQGTQVTVSS | high polyreactivity
QVQLVESGGGLVQAGCSLRLSCAASGFIFYDYDMGWYRQAPGKERELVAAITYSGGSTYYADSVKGRFTISRDNAKNTVYFQMNSLKPEDTAVYYCAAVKSRYAEAVDYYYWGQGTQVTVSS | low polyreactivity
QVQLVESGGGLVQAGGSLRLSCAASGITFYRNAMGWYRQAPGKERELVAAIDVGDGTYYADSVKGRFTISRDNAKNSVYFQMNSLKPEDTAVYYCNKTFLFLEYDSWGQGTQVTVSS | low polyreactivity
QVQLVESGGGLVQAGGSLRISCAASGSIFRWNAMGWYRQAPGKERELVAAINWSGGSTYYADSVKGRFTISRDNAKNTVYLQMNSLKPEDTAVYYCAVDYWSGITWVEYWGQGTQVTVSS | high polyreactivity
QVQLVESGGGLVQAGGSLRLSCAASGRILYGYTMGWYRQAPGKEREFVARITRRGGRTNYADSVKGRFTISRDNAKNTVYLQMNSLKPEDTAVYYCAADPIRDSWWQYFQDGREYDYWGQGTQVTVSS | low polyreactivity
QVQLVESGGGLVQAGGSLRLSCAASGRTCPYYVMGWFRQAPGKERELVAAIRRTGGSTYYADSVKGRFTISRDNAKNTVYLQMNSLKPEDTAVYYFTKSHSILYEGGYDYWGQGTQVTVSS | low polyreactivity
QVQLVESGGGLVQAGGSLRLSCAASGFIFVGNDMGWYRQAPGKERELVAAISSGGTTIYADSVKGRFTISRDNAKNTVYLQMNSLKPEDTAVYFCAADYDYRQGYDSVHLDYWGQGTQVTVSS | low polyreactivity
QVQLVESGGGLVQAGGSLRLSCAASGSIFNKYAMGWYRQAPGKERELVATISFRGGSTYADSVKGRFTISRDNAKNTVYLQMNSLKPEDTAVYYCATKSGRNSPRMDYWGQGTQVTVSS | high polyreactivity
QVQLVESGGGLVQAGGSLRLSCAASGRIFGRNAMGWYRQAPGKERELVAAISSGSGSTYYADSVKGRFTISRDNAKNTVYLQMISLKPEDTAVYYCAATVSTYLAWRGYWGQGTQVTVSS | high polyreactivity
QVQLVESGGGLVQAGGSLRLSCAASGSNFGPYAMGWYRQAPGKERELVAAISYSSVRTYYADSVKGRFTISRDNAKNTVYLQMNSLKPEVTAVYYCNAYFRYAYPSKMDYWGQGTQVTVSS | low polyreactivity
QVQLVESGGGLVQAGGSLRISCAPSGIIFTDYAMGWYRQAPVKERELVAAISSGGGYTYYADSVKGRFTISRDNAKNTVYLQMISLKPEDTAVYYCAAEGYLISGAGDYLYDYYLGQGTQVTVSS | high polyreactivity
QVQLVESGGGLVQAGGSLRLSCPASGSTFTLYVMGWYRPAPGKERELVAAISSNGGRTYYADSVKGRFTISRDNAKNTVYLQMNSLKPEDTAVYDCAAGKIGRYHYDYWGQGTQVTVSS | high polyreactivity
QVPLVASGGGLVQAGGSLRLSCSASGRTFQYNAMGCYRQAPGKERELVAAITKRGTSTYFADSVKGRFTISRDNAKNTVYLQMNRLIPEDTAVYYCAALEGSLTGWQTYDYWGQGTQVTVSS | low polyreactivity
